In patent US20170015742A1 (published 2017):

B1: 4G8.3-SS-9E8.4 (PR-1564011) (bispecific antibody, human IgG1, kappa, L234A L235A)
heavy: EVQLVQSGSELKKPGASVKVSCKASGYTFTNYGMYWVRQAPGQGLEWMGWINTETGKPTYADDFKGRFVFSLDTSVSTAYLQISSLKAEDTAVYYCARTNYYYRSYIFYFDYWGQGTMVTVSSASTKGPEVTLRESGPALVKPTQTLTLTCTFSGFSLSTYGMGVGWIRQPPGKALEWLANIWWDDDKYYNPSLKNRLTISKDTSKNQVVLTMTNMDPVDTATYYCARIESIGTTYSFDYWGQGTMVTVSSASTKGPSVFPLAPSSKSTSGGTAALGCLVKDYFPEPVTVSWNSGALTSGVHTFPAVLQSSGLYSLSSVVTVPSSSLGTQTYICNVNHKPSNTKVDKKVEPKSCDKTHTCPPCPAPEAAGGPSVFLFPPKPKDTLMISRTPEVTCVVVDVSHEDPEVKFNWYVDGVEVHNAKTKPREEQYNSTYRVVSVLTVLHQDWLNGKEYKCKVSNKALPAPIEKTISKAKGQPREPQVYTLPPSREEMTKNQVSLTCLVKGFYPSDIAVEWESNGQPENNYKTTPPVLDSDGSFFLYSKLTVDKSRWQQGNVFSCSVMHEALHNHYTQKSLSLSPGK
light: DTVLTQSPATLSLSPGERATLSCRASESVSTHMHWYQQKPGQAPRLLIYGASNLESGVPARFSGSGSGTDFTLTISSLEPEDFAVYFCQQSWNDPFTFGQGTKLEIKRTVAAPEFVLTQSPGTLSLSPGERATLSCERSSGDIGDSYVSWYQQKPGQAPRLVIYADDQRPSGIPDRFSGSGSGTDFTLTISRLEPEDFAVYYCQSYDINIDIVFGGGTKVEIKGTVAAPSVFIFPPSDEQLKSGTASVVCLLNNFYPREAKVQWKVDNALQSGNSQESVTEQDSKDSTYSLSSTLTLSKADYEKHKVYACEVTHQGLSSPVTKSFNRGEC
notes: DVD-Ig; outer hBDB-4G8.3 (VEGF), linkers HG-short/LK-short, inner hBDI-9E8.4 (PDGF); human IgG1 L234A, L235A / kappa
B2: 4G8.3-LS-9E8.4 (PR-1564013) (bispecific antibody, human IgG1, kappa, L234A L235A)
heavy: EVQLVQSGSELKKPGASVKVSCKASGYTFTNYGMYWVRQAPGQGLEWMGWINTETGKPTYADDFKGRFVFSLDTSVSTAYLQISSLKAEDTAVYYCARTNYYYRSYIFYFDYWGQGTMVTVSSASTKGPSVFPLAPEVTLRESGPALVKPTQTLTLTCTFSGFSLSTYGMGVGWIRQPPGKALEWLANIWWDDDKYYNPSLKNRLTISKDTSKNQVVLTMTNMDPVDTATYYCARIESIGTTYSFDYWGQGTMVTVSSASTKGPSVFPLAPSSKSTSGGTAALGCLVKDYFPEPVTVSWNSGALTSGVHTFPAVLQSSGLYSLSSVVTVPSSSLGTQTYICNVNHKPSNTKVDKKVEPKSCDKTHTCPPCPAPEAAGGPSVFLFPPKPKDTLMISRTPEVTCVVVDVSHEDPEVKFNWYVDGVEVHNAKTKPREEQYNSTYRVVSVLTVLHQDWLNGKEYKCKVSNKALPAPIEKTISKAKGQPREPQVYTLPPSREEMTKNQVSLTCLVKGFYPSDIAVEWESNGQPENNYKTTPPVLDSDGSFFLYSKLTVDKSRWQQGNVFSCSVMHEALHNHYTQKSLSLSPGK
light: DTVLTQSPATLSLSPGERATLSCRASESVSTHMHWYQQKPGQAPRLLIYGASNLESGVPARFSGSGSGTDFTLTISSLEPEDFAVYFCQQSWNDPFTFGQGTKLEIKRTVAAPEFVLTQSPGTLSLSPGERATLSCERSSGDIGDSYVSWYQQKPGQAPRLVIYADDQRPSGIPDRFSGSGSGTDFTLTISRLEPEDFAVYYCQSYDINIDIVFGGGTKVEIKGTVAAPSVFIFPPSDEQLKSGTASVVCLLNNFYPREAKVQWKVDNALQSGNSQESVTEQDSKDSTYSLSSTLTLSKADYEKHKVYACEVTHQGLSSPVTKSFNRGEC
notes: DVD-Ig; outer hBDB-4G8.3 (VEGF), linkers HG-long/LK-short, inner hBDI-9E8.4 (PDGF); human IgG1 L234A, L235A / kappa
B3: DVD3904 (PR-1565031) (bispecific antibody, human IgG1, kappa, L234A L235A)
heavy: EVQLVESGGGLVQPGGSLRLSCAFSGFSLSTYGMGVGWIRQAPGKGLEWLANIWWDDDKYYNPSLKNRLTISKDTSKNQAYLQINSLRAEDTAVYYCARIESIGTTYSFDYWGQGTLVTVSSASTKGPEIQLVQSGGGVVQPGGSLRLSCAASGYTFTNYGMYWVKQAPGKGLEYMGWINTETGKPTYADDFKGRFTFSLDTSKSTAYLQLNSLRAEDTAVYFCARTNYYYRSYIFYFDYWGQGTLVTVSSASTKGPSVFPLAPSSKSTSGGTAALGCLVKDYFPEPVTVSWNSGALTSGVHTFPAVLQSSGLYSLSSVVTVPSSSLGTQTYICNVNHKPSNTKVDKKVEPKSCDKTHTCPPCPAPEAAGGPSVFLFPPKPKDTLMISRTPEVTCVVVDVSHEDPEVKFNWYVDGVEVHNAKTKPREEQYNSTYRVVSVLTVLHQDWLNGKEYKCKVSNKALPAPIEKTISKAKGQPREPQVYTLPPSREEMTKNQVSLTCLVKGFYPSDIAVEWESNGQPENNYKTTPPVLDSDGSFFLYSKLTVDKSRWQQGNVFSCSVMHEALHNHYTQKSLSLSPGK
light: DFQLTQSPSSLSASVGDRVTITCERSSGDIGDSYVSWYQQKPGKAPKNVIYADDQRPSGVPSRFSGSGSGNSASLTISSLQPEDFATYFCQSYDINIDIVFGQGTKVEIKGTVAAPSVFIFPPDTVLTQSPSTLSASPGERATISCRASESVSTHMHWYQQKPGQAPKLLIYGASNLESGVPSRFSGSRSGTDFTLTISSLQPEDFAVYFCQQSWNDPFTFGQGTKVEIKRTVAAPSVFIFPPSDEQLKSGTASVVCLLNNFYPREAKVQWKVDNALQSGNSQESVTEQDSKDSTYSLSSTLTLSKADYEKHKVYACEVTHQGLSSPVTKSFNRGEC
notes: DVD-Ig; linkers HG-short/LK-long, inner hBDB-4G8.14 (VEGF); human IgG1 L234A, L235A / kappa
B4: DVD3905 (PR-1565032) (bispecific antibody, human IgG1, kappa, L234A L235A)
heavy: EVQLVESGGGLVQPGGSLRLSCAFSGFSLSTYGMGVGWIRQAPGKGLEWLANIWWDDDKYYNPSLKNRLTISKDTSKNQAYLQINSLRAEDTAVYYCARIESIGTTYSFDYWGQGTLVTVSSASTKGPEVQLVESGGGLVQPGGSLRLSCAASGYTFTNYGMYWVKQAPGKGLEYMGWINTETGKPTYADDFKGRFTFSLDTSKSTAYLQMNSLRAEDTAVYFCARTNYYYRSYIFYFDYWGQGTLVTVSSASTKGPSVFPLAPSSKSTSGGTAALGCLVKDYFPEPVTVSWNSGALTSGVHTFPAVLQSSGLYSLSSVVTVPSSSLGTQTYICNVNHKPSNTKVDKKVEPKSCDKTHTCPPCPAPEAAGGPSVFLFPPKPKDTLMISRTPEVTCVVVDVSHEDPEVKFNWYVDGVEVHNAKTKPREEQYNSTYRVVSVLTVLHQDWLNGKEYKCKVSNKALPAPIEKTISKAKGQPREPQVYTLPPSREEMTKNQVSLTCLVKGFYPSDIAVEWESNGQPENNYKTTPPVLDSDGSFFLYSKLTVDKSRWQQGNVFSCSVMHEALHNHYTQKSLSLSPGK
light: DFQLTQSPSSLSASVGDRVTITCERSSGDIGDSYVSWYQQKPGKAPKNVIYADDQRPSGVPSRFSGSGSGNSASLTISSLQPEDFATYFCQSYDINIDIVFGQGTKVEIKGTVAAPSVFIFPPDTQLTQSPSSLSASVGDRVTISCRASESVSTHMHWYQQKPGKAPKLLIYGASNLESGVPSRFSGSGSGTDFTLTISSLQPEDFATYFCQQSWNDPFTFGQGTKVEIKRTVAAPSVFIFPPSDEQLKSGTASVVCLLNNFYPREAKVQWKVDNALQSGNSQESVTEQDSKDSTYSLSSTLTLSKADYEKHKVYACEVTHQGLSSPVTKSFNRGEC
notes: DVD-Ig; outer hBDI-9E8.12 (PDGF), linkers HG-short/LK-long, inner hBDB-4G8.15 (VEGF); human IgG1 L234A, L235A / kappa
B5: 4G8.3-SL-9E8.4 (PR-1564012) (bispecific antibody, human IgG1, kappa, L234A L235A)
heavy: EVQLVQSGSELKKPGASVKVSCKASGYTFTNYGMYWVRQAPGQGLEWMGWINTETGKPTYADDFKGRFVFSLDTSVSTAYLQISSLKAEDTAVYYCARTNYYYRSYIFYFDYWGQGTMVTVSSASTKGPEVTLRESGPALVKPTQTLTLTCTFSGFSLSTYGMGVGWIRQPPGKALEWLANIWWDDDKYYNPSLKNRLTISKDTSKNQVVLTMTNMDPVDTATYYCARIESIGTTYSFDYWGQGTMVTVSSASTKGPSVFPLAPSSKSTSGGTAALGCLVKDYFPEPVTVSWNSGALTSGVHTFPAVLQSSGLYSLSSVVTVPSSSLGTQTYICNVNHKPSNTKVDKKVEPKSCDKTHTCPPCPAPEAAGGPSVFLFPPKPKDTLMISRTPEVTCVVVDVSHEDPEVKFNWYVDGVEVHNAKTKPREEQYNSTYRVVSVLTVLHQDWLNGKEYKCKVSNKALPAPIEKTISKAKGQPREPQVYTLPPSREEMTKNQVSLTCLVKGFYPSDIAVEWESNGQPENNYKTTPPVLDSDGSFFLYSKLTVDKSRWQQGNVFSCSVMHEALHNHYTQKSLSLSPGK
light: DTVLTQSPATLSLSPGERATLSCRASESVSTHMHWYQQKPGQAPRLLIYGASNLESGVPARFSGSGSGTDFTLTISSLEPEDFAVYFCQQSWNDPFTFGQGTKLEIKRTVAAPSVFIFPPEFVLTQSPGTLSLSPGERATLSCERSSGDIGDSYVSWYQQKPGQAPRLVIYADDQRPSGIPDRFSGSGSGTDFTLTISRLEPEDFAVYYCQSYDINIDIVFGGGTKVEIKGTVAAPSVFIFPPSDEQLKSGTASVVCLLNNFYPREAKVQWKVDNALQSGNSQESVTEQDSKDSTYSLSSTLTLSKADYEKHKVYACEVTHQGLSSPVTKSFNRGEC
notes: DVD-Ig; outer hBDB-4G8.3 (VEGF), linkers HG-short/LK-long, inner hBDI-9E8.4 (PDGF); human IgG1 L234A, L235A / kappa
B6: 4G8.3-SL-9E8.4 (g) (PR-1572105) (bispecific antibody, human IgG1, kappa, L234A L235A)
heavy: EVQLVQSGSELKKPGASVKVSCKASGYTFTNYGMYWVRQAPGQGLEWMGWINTETGKPTYADDFKGRFVFSLDTSVSTAYLQISSLKAEDTAVYYCARTNYYYRSYIFYFDYWGQGTMVTVSSASTKGPEVTLRESGPALVKPTQTLTLTCTFSGFSLSTYGMGVGWIRQPPGKALEWLANIWWDDDKYYNPSLKNRLTISKDTSKNQVVLTMTNMDPVDTATYYCARIESIGTTYSFDYWGQGTMVTVSSASTKGPSVFPLAPSSKSTSGGTAALGCLVKDYFPEPVTVSWNSGALTSGVHTFPAVLQSSGLYSLSSVVTVPSSSLGTQTYICNVNHKPSNTKVDKKVEPKSCDKTHTCPPCPAPEAAGGPSVFLFPPKPKDTLMISRTPEVTCVVVDVSHEDPEVKFNWYVDGVEVHNAKTKPREEQYNSTYRVVSVLTVLHQDWLNGKEYKCKVSNKALPAPIEKTISKAKGQPREPQVYTLPPSREEMTKNQVSLTCLVKGFYPSDIAVEWESNGQPENNYKTTPPVLDSDGSFFLYSKLTVDKSRWQQGNVFSCSVMHEALHNAYTQKSLSLSPGK
light: DTVLTQSPATLSLSPGERATLSCRASESVSTHMHWYQQKPGQAPRLLIYGASNLESGVPARFSGSGSGTDFTLTISSLEPEDFAVYFCQQSWNDPFTFGQGTKLEIKRTVAAPSVFIFPPEFVLTQSPGTLSLSPGERATLSCERSSGDIGDSYVSWYQQKPGQAPRLVIYADDQRPSGIPDRFSGSGSGTDFTLTISRLEPEDFAVYYCQSYDINIDIVFGGGTKVEIKRTVAAPSVFIFPPSDEQLKSGTASVVCLLNNFYPREAKVQWKVDNALQSGNSQESVTEQDSKDSTYSLSSTLTLSKADYEKHKVYACEVTHQGLSSPVTKSFNRGEC
notes: DVD-Ig; outer hBDB-4G8.3 (VEGF), linkers HG-short/LK-long, inner hBDI-9E8.4 (PDGF); human IgG1 L234A, L235A, H435A / kappa; also called hu VEGF 4G8.3-SL-hu PDGF 9E8.4 (germline) [hu IgG1/k]; LALA H435A; DVD-Ig-3
B7: 4G8.3-GS(9)-9E8.4 (g) (PR-1572102) (bispecific antibody, human IgG1, kappa, L234A L235A)
heavy: EVQLVQSGSELKKPGASVKVSCKASGYTFTNYGMYWVRQAPGQGLEWMGWINTETGKPTYADDFKGRFVFSLDTSVSTAYLQISSLKAEDTAVYYCARTNYYYRSYIFYFDYWGQGTMVTVSSGGGGSGGGGSEVTLRESGPALVKPTQTLTLTCTFSGFSLSTYGMGVGWIRQPPGKALEWLANIWWDDDKYYNPSLKNRLTISKDTSKNQVVLTMTNMDPVDTATYYCARIESIGTTYSFDYWGQGTMVTVSSASTKGPSVFPLAPSSKSTSGGTAALGCLVKDYFPEPVTVSWNSGALTSGVHTFPAVLQSSGLYSLSSVVTVPSSSLGTQTYICNVNHKPSNTKVDKKVEPKSCDKTHTCPPCPAPEAAGGPSVFLFPPKPKDTLMISRTPEVTCVVVDVSHEDPEVKFNWYVDGVEVHNAKTKPREEQYNSTYRVVSVLTVLHQDWLNGKEYKCKVSNKALPAPIEKTISKAKGQPREPQVYTLPPSREEMTKNQVSLTCLVKGFYPSDIAVEWESNGQPENNYKTTPPVLDSDGSFFLYSKLTVDKSRWQQGNVFSCSVMHEALHNAYTQKSLSLSPGK
light: DTVLTQSPATLSLSPGERATLSCRASESVSTHMHWYQQKPGQAPRLLIYGASNLESGVPARFSGSGSGTDFTLTISSLEPEDFAVYFCQQSWNDPFTFGQGTKLEIKRGGSGGGGSGEFVLTQSPGTLSLSPGERATLSCERSSGDIGDSYVSWYQQKPGQAPRLVIYADDQRPSGIPDRFSGSGSGTDFTLTISRLEPEDFAVYYCQSYDINIDIVFGGGTKVEIKRTVAAPSVFIFPPSDEQLKSGTASVVCLLNNFYPREAKVQWKVDNALQSGNSQESVTEQDSKDSTYSLSSTLTLSKADYEKHKVYACEVTHQGLSSPVTKSFNRGEC
notes: DVD-Ig; outer hBDB-4G8.3 (VEGF), linkers GS-H10/GS-L10, inner hBDI-9E8.4 (PDGF); human IgG1 L234A, L235A, H435A / kappa; also called 4G8.3-GS-9E8.4 (g); hu VEGF 4G8.3-GS-hu PDGF 9E8.4 (germline) [hu IgG1/k]; LALA H435A
B8: 4G8.3-GS(noR)-9E8.4 (g) (PR-1572104) (bispecific antibody, human IgG1, kappa, L234A L235A)
heavy: EVQLVQSGSELKKPGASVKVSCKASGYTFTNYGMYWVRQAPGQGLEWMGWINTETGKPTYADDFKGRFVFSLDTSVSTAYLQISSLKAEDTAVYYCARTNYYYRSYIFYFDYWGQGTMVTVSSGGGGSGGGGSEVTLRESGPALVKPTQTLTLTCTFSGFSLSTYGMGVGWIRQPPGKALEWLANIWWDDDKYYNPSLKNRLTISKDTSKNQVVLTMTNMDPVDTATYYCARIESIGTTYSFDYWGQGTMVTVSSASTKGPSVFPLAPSSKSTSGGTAALGCLVKDYFPEPVTVSWNSGALTSGVHTFPAVLQSSGLYSLSSVVTVPSSSLGTQTYICNVNHKPSNTKVDKKVEPKSCDKTHTCPPCPAPEAAGGPSVFLFPPKPKDTLMISRTPEVTCVVVDVSHEDPEVKFNWYVDGVEVHNAKTKPREEQYNSTYRVVSVLTVLHQDWLNGKEYKCKVSNKALPAPIEKTISKAKGQPREPQVYTLPPSREEMTKNQVSLTCLVKGFYPSDIAVEWESNGQPENNYKTTPPVLDSDGSFFLYSKLTVDKSRWQQGNVFSCSVMHEALHNAYTQKSLSLSPGK
light: DTVLTQSPATLSLSPGERATLSCRASESVSTHMHWYQQKPGQAPRLLIYGASNLESGVPARFSGSGSGTDFTLTISSLEPEDFAVYFCQQSWNDPFTFGQGTKLEIKGGSGGGGSGGEFVLTQSPGTLSLSPGERATLSCERSSGDIGDSYVSWYQQKPGQAPRLVIYADDQRPSGIPDRFSGSGSGTDFTLTISRLEPEDFAVYYCQSYDINIDIVFGGGTKVEIKRTVAAPSVFIFPPSDEQLKSGTASVVCLLNNFYPREAKVQWKVDNALQSGNSQESVTEQDSKDSTYSLSSTLTLSKADYEKHKVYACEVTHQGLSSPVTKSFNRGEC
notes: DVD-Ig; outer hBDB-4G8.3 (VEGF), linkers GS-H10/GS-L10(dR), inner hBDI-9E8.4 (PDGF); human IgG1 L234A, L235A, H435A / kappa
B9: 4G8.3-GS-9E8.4 (PR-1564010) (bispecific antibody, human IgG1, kappa, L234A L235A)
heavy: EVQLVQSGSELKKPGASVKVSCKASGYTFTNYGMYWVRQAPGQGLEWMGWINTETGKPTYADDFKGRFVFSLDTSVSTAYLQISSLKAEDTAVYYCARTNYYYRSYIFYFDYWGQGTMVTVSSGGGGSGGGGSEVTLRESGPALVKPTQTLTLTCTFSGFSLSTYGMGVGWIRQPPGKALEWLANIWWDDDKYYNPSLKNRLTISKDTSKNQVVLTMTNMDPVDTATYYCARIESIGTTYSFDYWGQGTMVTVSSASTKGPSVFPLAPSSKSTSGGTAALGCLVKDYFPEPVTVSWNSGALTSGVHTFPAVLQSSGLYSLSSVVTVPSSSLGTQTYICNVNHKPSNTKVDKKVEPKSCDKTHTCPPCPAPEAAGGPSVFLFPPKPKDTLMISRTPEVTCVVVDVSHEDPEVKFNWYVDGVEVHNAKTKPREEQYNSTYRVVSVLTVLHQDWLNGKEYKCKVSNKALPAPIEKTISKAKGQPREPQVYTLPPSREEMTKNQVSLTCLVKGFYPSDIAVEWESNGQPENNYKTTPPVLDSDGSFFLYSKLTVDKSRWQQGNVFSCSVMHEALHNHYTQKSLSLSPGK
light: DTVLTQSPATLSLSPGERATLSCRASESVSTHMHWYQQKPGQAPRLLIYGASNLESGVPARFSGSGSGTDFTLTISSLEPEDFAVYFCQQSWNDPFTFGQGTKLEIKRGGSGGGGSGEFVLTQSPGTLSLSPGERATLSCERSSGDIGDSYVSWYQQKPGQAPRLVIYADDQRPSGIPDRFSGSGSGTDFTLTISRLEPEDFAVYYCQSYDINIDIVFGGGTKVEIKGTVAAPSVFIFPPSDEQLKSGTASVVCLLNNFYPREAKVQWKVDNALQSGNSQESVTEQDSKDSTYSLSSTLTLSKADYEKHKVYACEVTHQGLSSPVTKSFNRGEC
notes: DVD-Ig; outer hBDB-4G8.3 (VEGF), linkers GS-H10/GS-L10, inner hBDI-9E8.4 (PDGF); human IgG1 L234A, L235A / kappa

Tests used:
VEGF-A = VEGF-A (UniProt P15692-4 27-191, limits assumed); assay: SPR (Biacore), DVD-Ig captured by anti-human Fc, antigen in flow
Procedure: (§1) For example, approximately 9000 RU of goat anti-human Fc specific polyclonal antibody (Thermo Fisher Scientific Inc., Rockford, Ill.) diluted in 10 mM sodium acetate (pH 4.5) is directly immobilized across a CM5 research grade biosensor chip using a standard amine coupling kit according to manufacturer's instructions and procedures at 25 μg/ml. Unreacted moieties on the biosensor surface were blocked with ethanolamine. For kinetic analysis, rate equations derived from the 1:1 Langmuir binding model were fitted simultaneously to multiple antigen injections (using global fit analysis) with the use of Scrubber 2 (BioLogic Software), Biacore Biaevaluation 4.0.1 software or Biacore T100 Evaluation software. Purified antibodies or DVD-Ig molecules were diluted in running buffer for capture across goat anti-human Fc reaction surfaces. Antibodies or DVD-Ig molecules to be captured as a ligand (1 μg/ml) were injected over reaction matrices at a flow rate of 10 μl/minute. During the assay, all measurements were referenced against the capture surface alone (i.e., with no captured antibody or DVD-Ig molecule). […] The equilibrium dissociation constant KD (M) of the reaction between antibodies and the target antigen was then calculated from the kinetic rate constants by the following formula: KD=Koff/Kₒₙ. Binding was recorded as a function of time and kinetic rate constants were calculated.

PDGF-BB = PDGF-BB (UniProt P01127 82-190); assay: as above
Procedure: as §1

Chain of PDGF-BB (P01127 82-190): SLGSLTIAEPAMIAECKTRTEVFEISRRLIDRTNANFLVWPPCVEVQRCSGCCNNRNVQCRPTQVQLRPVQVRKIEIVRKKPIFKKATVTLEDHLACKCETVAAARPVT
Chain of VEGF-A (P15692 other isoform, or with tags, fused parts or gaps limits assumed): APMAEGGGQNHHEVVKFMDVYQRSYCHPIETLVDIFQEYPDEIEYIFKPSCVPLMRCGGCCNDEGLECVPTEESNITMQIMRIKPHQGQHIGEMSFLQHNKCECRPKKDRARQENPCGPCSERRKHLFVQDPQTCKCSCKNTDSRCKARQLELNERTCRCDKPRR

Row | Binder | Kd (VEGF-A) [nM] | kon (VEGF-A) [M⁻¹ s⁻¹] | Kd (PDGF-BB) [nM] | kon (PDGF-BB) [M⁻¹ s⁻¹]
1 | B1 | 0.013 | 3.1e+06 | 0.019 | 7.5e+06
2 | B2 | 0.012 | 3.1e+06 | 0.0086 | 1.7e+07
3 | B3 | 0.19 | 610000 | 0.09 | 1e+07
4 | B4 | 0.094 | 1.1e+06 | 0.18 | 1e+07
5 | B5 | 0.013 | 3.1e+06 | 0.0099 | 1.4e+07
6 | B6 | 0.011 | 5.6e+06 | 0.013 | 1.3e+07
7 | B7 | 0.013 | 6e+06 | 0.013 | 1.3e+07
8 | B8 | 0.011 | 6.1e+06 | 0.0089 | 1.5e+07
9 | B9 | 0.017 | 3.3e+06 | 0.013 | 1e+07
